The values that follow come from PMC9834060.

Common to all, as to experiment: cryo-EM structure; BlaR1 in LMNG, purified by GraDeR glycerol gradient, desalted into 150 mM sodium chloride, 20 mM HEPES pH 7.5; grids blotted at 4 °C; BlaR1(F284A) also with ampicillin (1 mM, then 250 µM)
Assay [1] deals with S. aureus BlaR1 F284A mutant acylated with ampicillin (BlaR1(F284A)–ampicillin) (S. aureus) (UniProt Q00419).
Assay [2] addresses S. aureus BlaR1, wild type (BlaR1(WT)) (S. aureus) (UniProt Q00419).
In assay [3] the target is S. aureus BlaR1 F284A mutant (BlaR1(F284A)) (S. aureus) (UniProt Q00419).

By stoichiometry N is commonly meant the number of molecules, sites or subunits per partner or assembly. “S. aureus BlaR1 F284A mutant acylated with ampicillin (BlaR1(F284A)–ampicillin) (from UniProt Q00419 1-585) (receptor)”: in assay [1], the stoichiometry N amounted to 2.

As for “S. aureus BlaR1, wild type (BlaR1(WT)) (from UniProt Q00419 1-585) (receptor)”, the stoichiometry N in assay [2] worked out at 2.

Turning to “S. aureus BlaR1 F284A mutant (BlaR1(F284A)) (from UniProt Q00419 1-585) (receptor)”, the stoichiometry N in assay [3] amounted to 2.
